Experimental data: IntAct's records for PubMed 22291008

B1: CMRF35-like molecule 5 (Homo sapiens), Q6UXZ3 (parent)
chain: MWLSPSLLLLILPGYSIAAKITGPTTVNGSEQGSLTVQCAYGSGWETYLKWRCQGADWNYCNILVKTNGSEQEVKKNRVSIRDNQKNHVFTVTMENLKRDDADSYWCGTERPGIDLGVKVQVTINPGTQTAVSEWTTTTASLAFTAAATQKTSSPLTRSPLKSTHFLFLFLLELPLLLSMLGTVLWVNRPQRRS
B2: High affinity immunoglobulin epsilon receptor subunit gamma (Homo sapiens), P30273 (parent)
chain: MIPAVVLLLLLLVEQAAALGEPQLCYILDAILFLYGIVLTLLYCRLKIQVRKAAITSYEKSDGVYTGLSTRNQETYETLKHEKPPQ
partner: B1 chain

Variants of: B1
Details: with fcerg_human FCER1G, P30273

Variant | effect of a mutation on the interaction
MWLSPSLLLLILPGYSIAAKITGPTTVNGSEQGSLTVQCAYGSGWETYLKWRCQGADWNYCNILVKTNGSEQEVKKNRVSIRDNQKNHVFTVTMENLKRDDADSYWCGTERPGIDLGVKVQVTINPGTQTAVSEWTTTTASLAFTAAATQKTSSPLTRSPLKSTHFLFLFLLALPLLLSMLGTVLWVNRPQRRS | with no effect

Variants of: B2
Details: with clm5_human CD300LD, Q6UXZ3

Variant | effect of a mutation on the interaction
MIPAVVLLLLLLVEQAAALGEPQLCYILAAILFLYGIVLTLLYCRLKIQVRKAAITSYEKSDGVYTGLSTRNQETYETLKHEKPPQ | decreasing interaction strength
